The source of these data is US20180127513A1 (published 2018).

The assay has as its target T1, human CD73 on cells (UniProt P21589 27-549).
T1 chain: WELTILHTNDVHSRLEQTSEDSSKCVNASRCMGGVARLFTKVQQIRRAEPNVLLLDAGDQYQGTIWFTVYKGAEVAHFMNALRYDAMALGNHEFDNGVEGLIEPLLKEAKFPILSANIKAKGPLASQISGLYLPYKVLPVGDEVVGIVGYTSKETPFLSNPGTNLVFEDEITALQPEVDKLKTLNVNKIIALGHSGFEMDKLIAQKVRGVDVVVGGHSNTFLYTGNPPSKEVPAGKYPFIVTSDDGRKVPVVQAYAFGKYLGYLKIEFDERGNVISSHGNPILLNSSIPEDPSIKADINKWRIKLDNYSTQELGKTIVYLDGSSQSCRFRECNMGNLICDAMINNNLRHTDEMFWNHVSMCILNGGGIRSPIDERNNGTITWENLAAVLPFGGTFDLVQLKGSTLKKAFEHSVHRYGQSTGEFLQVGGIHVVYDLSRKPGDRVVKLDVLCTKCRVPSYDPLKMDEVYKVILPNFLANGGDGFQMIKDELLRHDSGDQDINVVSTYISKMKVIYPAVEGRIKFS
The assay is described as follows: FACS cell binding; Calu6 cells.

B1: 11F11 (antibody, V domains shown)
VH: QVQLVESGGGVVQPGRSLRLSCATSGFTFSNYGMHWVRQAPGKGLEWVAVILYDGSNKYYPDSVKGRFTISRDNSKNTLYLQMNSLRAEDTAVYYCARGGSSWYPDSFDIWGQGTMVTVSS
VL: DIQMTQSPSSLSASVGDRVTITCRASQGISSWLAWYQQKPEKAPKSLIYAASSLQSGVPSRFSGSGSGTDFTLTISSLQPEDFATYYCQQYNSYPLTFGGGTKVEIKR
In the case of B1, the dissociation constant (Kd) – broadly, the free concentration of one partner at which half of the binding sites on the other are occupied at equilibrium, for simple one-to-one binding – stood at 0.188 µg/mL.

B2: CD73.10-IgG2-C219S (antibody)
heavy: QVQLVESGGGVVQPGRSLRLSCAASGFTFSNYGMHWVRQAPGKGLEWVAVIWYDESNKYYPDSVKGRFTISRDNSKNTLYLQMNSLRAEDTAVYYCARGGSSWYPDSFDIWGQGTMVTVSSASTKGPSVFPLAPCSRSTSESTAALGCLVKDYFPEPVTVSWNSGALTSGVHTFPAVLQSSGLYSLSSVVTVPSSNFGTQTYTCNVDHKPSNTKVDKTVERKSCVECPPCPAPPVAGPSVFLFPPKPKDTLMISRTPEVTCVVVDVSHEDPEVQFNWYVDGVEVHNAKTKPREEQFNSTFRVVSVLTVVHQDWLNGKEYKCKVSNKGLPAPIEKTISKTKGQPREPQVYTLPPSREEMTKNQVSLTCLVKGFYPSDIAVEWESNGQPENNYKTTPPMLDSDGSFFLYSKLTVDKSRWQQGNVFSCSVMHEALHNHYTQKSLSLSPG
light: not shown
The molecule B2 displayed a dissociation constant Kd of 0.162 µg/mL.

B3: CD73.4-IgG2-C219S-IgG1.1f (antibody)
heavy: QVQLVESGGGVVQPGRSLRLSCAASGFTFSNYGMHWVRQAPGKGLEWVAVILYDGSNKYYPDSVKGRFTISRDNSKNTLYLQMNSLRAEDTAVYYCARGGSSWYPDSFDIWGQGTMVTVSSASTKGPSVFPLAPCSRSTSESTAALGCLVKDYFPEPVTVSWNSGALTSGVHTFPAVLQSSGLYSLSSVVTVPSSNFGTQTYTCNVDHKPSNTKVDKTVERKSCVECPPCPAPPVAGPSVFLFPPKPKDTLMISRTPEVTCVVVDVSHEDPEVKFNWYVDGVEVHNAKTKPREEQYNSTYRVVSVLTVLHQDWLNGKEYKCKVSNKALPSSIEKTISKAKGQPREPQVYTLPPSREEMTKNQVSLTCLVKGFYPSDIAVEWESNGQPENNYKTTPPVLDSDGSFFLYSKLTVDKSRWQQGNVFSCSVMHEALHNHYTQKSLSLSPG
light: not shown
modifications: N-terminal Gln 94% pyro-Q; 97% of heavy chains lack the C-terminal Lys
With B3, binding was put at a Kd of 0.0964 µg/mL.

B4: CD73.10-IgG2-C219S-IgG1.1f (antibody)
heavy: QVQLVESGGGVVQPGRSLRLSCAASGFTFSNYGMHWVRQAPGKGLEWVAVIWYDESNKYYPDSVKGRFTISRDNSKNTLYLQMNSLRAEDTAVYYCARGGSSWYPDSFDIWGQGTMVTVSSASTKGPSVFPLAPCSRSTSESTAALGCLVKDYFPEPVTVSWNSGALTSGVHTFPAVLQSSGLYSLSSVVTVPSSNFGTQTYTCNVDHKPSNTKVDKTVERKSCVECPPCPAPPVAGPSVFLFPPKPKDTLMISRTPEVTCVVVDVSHEDPEVKFNWYVDGVEVHNAKTKPREEQYNSTYRVVSVLTVLHQDWLNGKEYKCKVSNKALPSSIEKTISKAKGQPREPQVYTLPPSREEMTKNQVSLTCLVKGFYPSDIAVEWESNGQPENNYKTTPPVLDSDGSFFLYSKLTVDKSRWQQGNVFSCSVMHEALHNHYTQKSLSLSPG
light: not shown
B4 yielded a dissociation constant (Kd) of 0.156 µg/mL.

B5: CD73.4-IgG2-C219S (antibody)
heavy: QVQLVESGGGVVQPGRSLRLSCAASGFTFSNYGMHWVRQAPGKGLEWVAVILYDGSNKYYPDSVKGRFTISRDNSKNTLYLQMNSLRAEDTAVYYCARGGSSWYPDSFDIWGQGTMVTVSSASTKGPSVFPLAPCSRSTSESTAALGCLVKDYFPEPVTVSWNSGALTSGVHTFPAVLQSSGLYSLSSVVTVPSSNFGTQTYTCNVDHKPSNTKVDKTVERKSCVECPPCPAPPVAGPSVFLFPPKPKDTLMISRTPEVTCVVVDVSHEDPEVQFNWYVDGVEVHNAKTKPREEQFNSTFRVVSVLTVVHQDWLNGKEYKCKVSNKGLPAPIEKTISKTKGQPREPQVYTLPPSREEMTKNQVSLTCLVKGFYPSDIAVEWESNGQPENNYKTTPPMLDSDGSFFLYSKLTVDKSRWQQGNVFSCSVMHEALHNHYTQKSLSLSPG
light: not shown
Regarding B5, the Kd came to 0.0826 µg/mL.
